Earlier results in publication PMC3819593.

Columns and labels:
[1] = target: LLT1 (Homo sapiens) (UniProt Q9UHP7)
[2] = target: AICL (Homo sapiens) (UniProt Q92478)
UniProt Q92478, sequence (Q92478 whole entry): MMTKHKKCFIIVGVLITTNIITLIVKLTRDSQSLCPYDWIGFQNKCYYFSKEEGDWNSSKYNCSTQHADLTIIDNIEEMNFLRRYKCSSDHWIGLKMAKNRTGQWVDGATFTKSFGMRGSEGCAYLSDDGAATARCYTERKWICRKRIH

UniProt Q9UHP7, sequence (Q9UHP7 whole entry): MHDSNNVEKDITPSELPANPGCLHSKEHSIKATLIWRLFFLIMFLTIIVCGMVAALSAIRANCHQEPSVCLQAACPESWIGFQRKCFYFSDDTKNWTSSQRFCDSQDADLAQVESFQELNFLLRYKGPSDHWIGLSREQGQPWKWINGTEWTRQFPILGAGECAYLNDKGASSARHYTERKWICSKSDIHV

Kd [1] [µM]	Kd [2] [µM]	Substance
48		NKRP1A (from UniProt Q12918)
	4	NKp80 (from UniProt Q9NZS2)
